T1: SYNGAP deletion mutant 894 to 1134 (-QTR*) (rat, UniProt Q9QUH6 1067-1307)
T1 construct: PCR generated deletion mutant, ends in -QTR; not shown: The GAL4 two-hybrid fusion domain and its junction residues
T1 sequence: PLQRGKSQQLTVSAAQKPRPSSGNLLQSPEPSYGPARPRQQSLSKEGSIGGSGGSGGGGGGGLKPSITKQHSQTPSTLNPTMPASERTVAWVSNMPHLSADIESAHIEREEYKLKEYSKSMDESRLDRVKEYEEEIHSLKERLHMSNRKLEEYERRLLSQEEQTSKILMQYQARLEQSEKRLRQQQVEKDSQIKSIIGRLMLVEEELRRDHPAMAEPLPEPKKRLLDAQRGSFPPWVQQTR

T2: SYNGAP deletion mutant 894 to 1132 (-Q*) (rat, UniProt Q9QUH6 1067-1305)
T2 construct: PCR generated deletion mutant, ends in -Q; not shown: The GAL4 two-hybrid fusion domain and its junction residues
T2 sequence: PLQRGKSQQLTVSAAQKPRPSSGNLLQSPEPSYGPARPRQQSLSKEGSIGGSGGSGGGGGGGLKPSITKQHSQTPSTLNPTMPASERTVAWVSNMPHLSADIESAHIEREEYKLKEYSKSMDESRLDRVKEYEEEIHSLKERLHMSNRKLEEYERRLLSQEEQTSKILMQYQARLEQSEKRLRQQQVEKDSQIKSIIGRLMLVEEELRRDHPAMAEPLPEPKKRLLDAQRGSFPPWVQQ

T3: SYNGAP of rat brain (endogenous) (rat, UniProt Q9QUH6 174-1308, limits assumed)
T3 construct: Native protein in brain homogenates, deoxycholate extracts of brain membranes and cultured hippocampal neurons; runs as a doublet or triplet, so the isoform is not certain; also called 130 kDa protein in brain; doublet or triplet of proteins at 130 kDa
T3 sequence: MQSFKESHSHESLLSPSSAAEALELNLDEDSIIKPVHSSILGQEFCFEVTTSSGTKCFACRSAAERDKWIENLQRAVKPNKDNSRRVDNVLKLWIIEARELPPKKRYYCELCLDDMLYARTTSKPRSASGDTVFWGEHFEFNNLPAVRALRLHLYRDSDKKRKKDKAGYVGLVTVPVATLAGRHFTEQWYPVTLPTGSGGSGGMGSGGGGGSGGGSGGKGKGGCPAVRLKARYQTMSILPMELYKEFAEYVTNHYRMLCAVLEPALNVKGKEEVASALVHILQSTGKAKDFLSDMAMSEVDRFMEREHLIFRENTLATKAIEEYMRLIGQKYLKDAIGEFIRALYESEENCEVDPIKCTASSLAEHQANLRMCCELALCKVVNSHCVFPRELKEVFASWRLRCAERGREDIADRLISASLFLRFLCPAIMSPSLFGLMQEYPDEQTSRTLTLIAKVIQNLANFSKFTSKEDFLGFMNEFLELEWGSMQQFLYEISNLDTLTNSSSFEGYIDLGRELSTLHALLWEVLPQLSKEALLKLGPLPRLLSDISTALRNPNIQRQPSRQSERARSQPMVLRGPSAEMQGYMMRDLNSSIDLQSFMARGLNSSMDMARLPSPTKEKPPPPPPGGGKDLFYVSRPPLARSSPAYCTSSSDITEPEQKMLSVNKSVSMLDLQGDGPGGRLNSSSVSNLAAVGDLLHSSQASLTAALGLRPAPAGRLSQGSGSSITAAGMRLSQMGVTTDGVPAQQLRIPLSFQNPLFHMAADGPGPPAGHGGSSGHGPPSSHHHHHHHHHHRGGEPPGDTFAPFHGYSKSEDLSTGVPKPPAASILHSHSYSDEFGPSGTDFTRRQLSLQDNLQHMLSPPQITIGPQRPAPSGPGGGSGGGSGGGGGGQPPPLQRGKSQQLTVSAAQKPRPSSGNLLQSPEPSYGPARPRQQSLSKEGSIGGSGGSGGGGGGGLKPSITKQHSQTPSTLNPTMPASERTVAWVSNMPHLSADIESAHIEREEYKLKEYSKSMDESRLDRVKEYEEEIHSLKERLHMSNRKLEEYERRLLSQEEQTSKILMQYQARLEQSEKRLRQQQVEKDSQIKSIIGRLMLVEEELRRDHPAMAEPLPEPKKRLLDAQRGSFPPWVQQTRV


Key:
[1] = molecular target: T1, SYNGAP deletion mutant 894 to 1134 …; assay: yeast two-hybrid, HIS3 growth without leucine, tryptophan and histidine in 100 mM 3-aminotriazole
From the text: (§1) The PDZ domains of PSD-95/SAP90 and SAP102 were amplified by PCR and subcloned into the yeast vector, pPC 86. PDZ domain 1 of PSD-95 covers the amino acids from 40 to 160; PDZ domain 2, from 156 to 248; and PDZ domain 3, from 298 to 403. See e.g., Cho et al., (1992) Neuron 9:929 for disclosure relating to the PSD-95 sequence.

[2] = molecular target: T2, SYNGAP deletion mutant 894 to 1132 (-Q*); assay: as above
From the text: as §1

[3] = molecular target: T3, SYNGAP of rat brain (endogenous); assay: coimmunoprecipitation from deoxycholate solubilized rat brain membranes, immunoblot
Method: Cortex and hippocampus from a male Sprague-Dawley rat, age of 4 to 6 weeks were homogenized twice using a glass-Teflon homogenizer with protease inhibitors (antipain, chymotrypsin, leupeptin, Trasylol, 0.1 mM PMSF). After determining the protein concentration of the P2 fraction by a Coomasie assay (Pierce), aliquots of the proteins at 3 mg/ml were stored at −80° C. until use. For coimmunoprecipitation, PA (300 μg per IP) was solubilized by 1.0% sodium deoxycholate followed by 0.1% Triton X-100 and the preparation was centrifuged for 10 minutes at 100,000×g. The supernatant was then used for coimmunoprecipitation.
The clarified supernatant of solubilized P2 fraction was then added to the sepharose beads and the mixture incubated for 2 to 3 hours at 4° C. […] When the antibodies were blocked with antigens, they were preincubated with the peptide at concentration of 100 µg/ml or fusion proteins at concentration of 50 µg/ml.

| binding result [2] | binding result [3] | Binder | binding result [1] |
| --- | --- | --- | --- |
| no binding |  | SAP102 PDZ 3 subcloned into yeast vector pPC 86 (other, UniProt Q62936 404-484, looked up, not shown: large carriers, domain: PDZ 3; Limits of the pPC86 construct are not restated; the bait construct of the same domain covers 367 to 452; also called third PDZ domain of SAP102) KIILHKGSTGLGFNIVGGEDGEGIFVSFILAGGPADLSGELRRGDRILSVNGVNLRNATHEQAAAALKRAGQSVTIVAQYR | no binding |
|  | no binding | GluR1 subunit of rat brain (endogenous) (receptor, UniProt P19490 19-907, looked up, also called NMDA receptor GluR1 subunit (so in the source)) ANFPNNIQIGGLFPNQQSQEHAAFRFALSQLTEPPKLLPQIDIVNISDSFEMTYRFCSQFSKGVYAIFGFYERRTVNMLTSFCGALHVCFITPSFPVDTSNQFVLQLRPELQEALISIIDHYKWQTFVYIYDADRGLSVLQRVLDTAAEKNWQVTAVNILTTTEEGYRMLFQDLEKKKERLVVVDCESERLNAILGQIVKLEKNGIGYHYILANLGFMDIDLNKFKESGANVTGFQLVNYTDTIPARIMQQWRTSDSRDHTRVDWKRPKYTSALTYDGVKVMAEAFQSLRRQRIDISRRGNAGDCLANPAVPWGQGIDIQRALQQVRFEGLTGNVQFNEKGRRTNYTLHVIEMKHDGIRKIGYWNEDDKFVPAATDAQAGGDNSSVQNRTYIVTTILEDPYVMLKKNANQFEGNDRYEGYCVELAAEIAKHVGYSYRLEIVSDGKYGARDPDTKAWNGMVGELVYGRADVAVAPLTITLVREEVIDFSKPFMSLGISIMIKKPQKSKPGVFSFLDPLAYEIWMCIVFAYIGVSVVLFLVSRFSPYEWHSEEFEEGRDQTTSDQSNEFGIFNSLWFSLGAFMQQGCDISPRSLSGRIVGGVWWFFTLIIISSYTANLAAFLTVERMVSPIESAEDLAKQTEIAYGTLEAGSTKEFFRRSKIAVFEKMWTYMKSAEPSVFVRTTEEGMIRVRKSKGKYAYLLESTMNEYIEQRKPCDTMKVGGNLDSKGYGIATPKGSALRNPVNLAVLKLNEQGLLDKLKNKWWYDKGECGSGGGDSKDKTSALSLSNVAGVFYILIGGLGLAMLVALIEFCYKSRSESKRMKGFCLIPQQSINEAIRTSTLPRNSGAGASGGGGSGENGRVVSQDFPKSMQSIPCMSHSSGMPLGATGL |  |

— US6723838 (Johns Hopkins, dated 2004)
